In the supplement of paper PMC10724198:
± gives the standard deviation of the averaged measurements.

System: Saccharomyces cerevisiae
Assay: protein stability index of tFT-peptide fusion (C-terminal peptide) (PSI (0-1 scale)); higher = more stable (slower turnover)
Conditions: temperature: 30 C
Method: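 MPS profiling in S. cerevisiae of the yeast C-terminome library: the last 12 aa of each annotated ORF are fused to the C-terminus of a sfGFP-mCherry timer, after a GGGS linker. Cells are FACS-sorted into 8 mCherry/sfGFP bins and deep-sequenced. PSI runs from 0 (unstable) to 1 (stable); wild type and das1Δ backgrounds, two technical replicates each.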

[1] = genetic background: das1 deletion

Sequence | protein stability index [1] | protein stability index (genetic background: wild type)
PSVSRKTPDYFL [PPH21 C-terminal 12 aa] | 0.701 ± 0.053 | 0.7 ± 0.032
EIDGQFCIFQVV [YJL107C C-terminal 12 aa] | 0.711 ± 0.013 | 0.647 ± 0.031
EKIKRDLALKKG [PET100 C-terminal 12 aa] | 0.697 ± 0.045 | 0.661 ± 0.059
QETAISVAKLFK [RPT6 C-terminal 12 aa] | 0.684 ± 0.007 | 0.7079 ± 0.007
KNLWEKFWAAVA [LYP1 C-terminal 12 aa] | 0.693 ± 0.0092 | 0.28 ± 0.021
LSQWVSQMPFPM [LRO1 C-terminal 12 aa] | 0.79828 ± 0.00044 | 0.8015 ± 0.0025
KTHTEYGYVMVA [YGR137W C-terminal 12 aa] | 0.618 ± 0.012 | 0.5401 ± 0.0042
DIDDDVGEDSED [RMR1 C-terminal 12 aa] | 0.694 ± 0.014 | 0.662 ± 0.013
PLSKMEDQVFVF [CBR1 C-terminal 12 aa] | 0.663 ± 0.036 | 0.657 ± 0.027
DEVTYLMFSSIM [SPG1 C-terminal 12 aa] | 0.713 ± 0.011 | 0.658 ± 0.026
VILSETVVILYY [YKR032W C-terminal 12 aa] | 0.346 ± 0.014 | 0.345 ± 0.0067
RGRIAAQKRIAA [RPL17A C-terminal 12 aa] | 0.667 ± 0.0084 | 0.604 ± 0.045
SDVISEESYNEA [SVF1 C-terminal 12 aa] | 0.7069 ± 0.0026 | 0.694 ± 0.0074
DRKQSQATNATN [ARP7 C-terminal 12 aa] | 0.687 ± 0.016 | 0.671 ± 0.0046
LLAKKKLKPNLL [YGR293C C-terminal 12 aa] | 0.714 ± 0.028 | 0.7 ± 0.04
MEALKEAREILG [MSH1 C-terminal 12 aa] | 0.7025 ± 0.0022 | 0.628 ± 0.019
SDGFANNRCQRK [YOR034C-A C-terminal 12 aa] | 0.658 ± 0.0075 | 0.718 ± 0.051
SVESLMTQQDVE [BIO4 C-terminal 12 aa] | 0.691 ± 0.011 | 0.6941 ± 0.0037
NGMWQKPEPGVS [YIL067C C-terminal 12 aa] | 0.691 ± 0.012 | 0.706 ± 0.028
DNFMNNSDIFQN [TGL5 C-terminal 12 aa] | 0.741 ± 0.027 | 0.686 ± 0.0082
FEGKPLYQMLKI [YAL047W-A C-terminal 12 aa] | 0.638 ± 0.031 | 0.551 ± 0.011

Sequence | protein stability index [1] | protein stability index (genetic background: wild type)
KEGRRSRTRTSS [YJR098C C-terminal 12 aa] | 0.7049 ± 0.0033 | 0.703 ± 0.0041
IHTPTIPKRSLT [MCX1 C-terminal 12 aa] | 0.7149 ± 0.0019 | 0.767 ± 0.052
KYFCDFLLDPEI [ECM14 C-terminal 12 aa] | 0.741 ± 0.0083 | 0.719 ± 0.01
RSTNGRPQRGYR [YLR326W C-terminal 12 aa] | 0.675 ± 0.027 | 0.664 ± 0.0025
AIHLEAVSLVDC [CIS3 C-terminal 12 aa] | 0.599 ± 0.011 | 0.611 ± 0.024
SAQRDRRYRKRV [RPS17A C-terminal 12 aa] | 0.6665 ± 0.0025 | 0.69 ± 0.067
NHPSNDSGNEKN [HCM1 C-terminal 12 aa] | 0.667 ± 0.025 | 0.656 ± 0.029
VQEWEVLGRVDV [CPD1 C-terminal 12 aa] | 0.724 ± 0.014 | 0.692 ± 0.022
GRENGDVNIWAV [MDV1 C-terminal 12 aa] | 0.702 ± 0.013 | 0.715 ± 0.0099
MLNQQQQQQQQS [NRD1 C-terminal 12 aa] | 0.702 ± 0.016 | 0.739 ± 0.017
LGDSPSQGRSIS [YPK2 C-terminal 12 aa] | 0.685 ± 0.012 | 0.688 ± 0.024
ELYNIIVKSVPK [YRB2 C-terminal 12 aa] | 0.673 ± 0.0039 | 0.695 ± 0.045
IYANRDKAKKNM [OPI3 C-terminal 12 aa] | 0.681 ± 0.021 | 0.499 ± 0.03
PDVLRKLSHQNV [PNS1 C-terminal 12 aa] | 0.713 ± 0.0075 | 0.666 ± 0.025
ENFNEVFEAIRS [RSC3 C-terminal 12 aa] | 0.6822 ± 0.0037 | 0.709 ± 0.016
ASNGVRLSEIGW [SNZ1 C-terminal 12 aa] | 0.699 ± 0.011 | 0.694 ± 0.027
NSALSSTSTLAI [RIB1 C-terminal 12 aa] | 0.6419 ± 0.0051 | 0.64 ± 0.04
LVKCASATIMLN [MIN3 C-terminal 12 aa] | 0.704 ± 0.021 | 0.483 ± 0.022
YINDISRTWNAN [MNT3 C-terminal 12 aa] | 0.68 ± 0.0086 | 0.679 ± 0.043
TASFAGSKKTFD [NSR1 C-terminal 12 aa] | 0.706 ± 0.023 | 0.678 ± 0.012
